# System: Escherichia coli TOP10
# Assay: shrunken log2 fold change of peptide-encoding DNA abundance (4.5 h post-induction vs induction); higher = less antimicrobial activity (less host growth inhibition)
# Settings: time post-induction: 4.5 h; library: site-saturation at positions 5, 18, 19, 20
# 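Note: peptides expressed intracellularly from a pBAD plasmid library in pooled LB shake-flask culture, induced with 0.3% L-arabinose, DNA abundance read by NGS, three biological replicates, DESeq2 with apeglm shrinkage.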
row,Sequence,shrunken log2 fold change
1,RRIRRRPPRLPRPRPRPNPMPRP,0.359
2,RRIRIRPPRLPRPRPRPAHMPRP,-0.303
3,RRIRERPPRLPRPRPRPDRVPRP,0.00251
4,RRIRTRPPRLPRPRPRPKCRPRP,0.0762
5,RRIRMRPPRLPRPRPRPNMVPRP,-0.147
6,RRIRFRPPRLPRPRPRPSTDPRP,-0.667
7,RRIRYRPPRLPRPRPRPSPTPRP,-0.167
8,RRIRYRPPRLPRPRPRPLKMPRP,-0.26
9,RRIRCRPPRLPRPRPRPQRPPRP,0.166
10,RRIRRRPPRLPRPRPRPEPIPRP,0.378
11,RRIRHRPPRLPRPRPRPRSYPRP,-0.12
12,RRIRCRPPRLPRPRPRPIIKPRP,-1.01
13,RRIRIRPPRLPRPRPRPYQKPRP,-0.243
14,RRIRDRPPRLPRPRPRPDSWPRP,0.0194
15,RRIRERPPRLPRPRPRPTVYPRP,-0.194
16,RRIRGRPPRLPRPRPRPHWFPRP,0.156
17,RRIRTRPPRLPRPRPRPEELPRP,0.0343
18,RRIRFRPPRLPRPRPRPDCGPRP,-0.107
19,RRIRLRPPRLPRPRPRPEINPRP,-0.0201
20,RRIRIRPPRLPRPRPRPIHGPRP,-0.0135
21,RRIRHRPPRLPRPRPRPAITPRP,-0.0845
22,RRIRCRPPRLPRPRPRPGEAPRP,0.449
23,RRIRGRPPRLPRPRPRPRIAPRP,0.519
24,RRIRRRPPRLPRPRPRPEFFPRP,0.216
25,RRIRSRPPRLPRPRPRPAWRPRP,0.567

row,Sequence,shrunken log2 fold change
1,RRIRSRPPRLPRPRPRPIFIPRP,-0.329
2,RRIRQRPPRLPRPRPRPIMKPRP,-0.0798
3,RRIRDRPPRLPRPRPRPGYGPRP,-0.0481
4,RRIRRRPPRLPRPRPRPPTRPRP,0.688
5,RRIRCRPPRLPRPRPRPDSWPRP,-0.115
6,RRIRMRPPRLPRPRPRPDHSPRP,0.318
7,RRIRSRPPRLPRPRPRPPYWPRP,0.3
8,RRIRSRPPRLPRPRPRPNHQPRP,-0.139
9,RRIRARPPRLPRPRPRPHPLPRP,-0.0796
10,RRIRIRPPRLPRPRPRPETLPRP,-0.102
11,RRIRFRPPRLPRPRPRPCVLPRP,-0.401
12,RRIRLRPPRLPRPRPRPIKFPRP,-0.0676
13,RRIRYRPPRLPRPRPRPDHHPRP,-0.0423
14,RRIRKRPPRLPRPRPRPIHVPRP,-0.0353
15,RRIRLRPPRLPRPRPRPEWVPRP,0.36
16,RRIRHRPPRLPRPRPRPSRGPRP,-0.0716
17,RRIRMRPPRLPRPRPRPQCVPRP,0.039
18,RRIRDRPPRLPRPRPRPALTPRP,0.468
19,RRIRVRPPRLPRPRPRPNRYPRP,-0.4
20,RRIRVRPPRLPRPRPRPAVTPRP,-0.269
21,RRIRGRPPRLPRPRPRPPPPPRP,1.54
22,RRIRTRPPRLPRPRPRPKCVPRP,-0.138
23,RRIRQRPPRLPRPRPRPNGPPRP,-0.011
24,RRIRCRPPRLPRPRPRPIRFPRP,-0.27
25,RRIRFRPPRLPRPRPRPLWAPRP,-0.151

row,Sequence,shrunken log2 fold change
1,RRIRQRPPRLPRPRPRPPTRPRP,0.398
2,RRIRQRPPRLPRPRPRPDAIPRP,0.0472
3,RRIRLRPPRLPRPRPRPWDRPRP,-0.0145
4,RRIRGRPPRLPRPRPRPYSWPRP,0.187
5,RRIRERPPRLPRPRPRPVNRPRP,-0.294
6,RRIRVRPPRLPRPRPRPVKKPRP,0.02
7,RRIRDRPPRLPRPRPRPATDPRP,0.0254
8,RRIRERPPRLPRPRPRPAKCPRP,-0.237
9,RRIRMRPPRLPRPRPRPAPKPRP,0.675
10,RRIRHRPPRLPRPRPRPLLRPRP,0.0548
11,RRIRSRPPRLPRPRPRPYFKPRP,-0.857
12,RRIRCRPPRLPRPRPRPQNKPRP,-0.526
13,RRIRCRPPRLPRPRPRPYMHPRP,-0.31
14,RRIRHRPPRLPRPRPRPIKNPRP,-0.563
15,RRIRPRPPRLPRPRPRPFPFPRP,-0.00615
16,RRIRHRPPRLPRPRPRPVVDPRP,-0.109
17,RRIRGRPPRLPRPRPRPWGEPRP,0.285
18,RRIRNRPPRLPRPRPRPQVNPRP,-0.129
19,RRIRMRPPRLPRPRPRPDYAPRP,0.263
20,RRIRRRPPRLPRPRPRPVYSPRP,-0.139
21,RRIRPRPPRLPRPRPRPGFWPRP,0.61
22,RRIRLRPPRLPRPRPRPLKKPRP,0.162
23,RRIRGRPPRLPRPRPRPFDWPRP,0.0459
24,RRIRIRPPRLPRPRPRPAYKPRP,-1.89
25,RRIRYRPPRLPRPRPRPFGIPRP,-0.149
